Laboratory results reported in patent US20240317834A1, “COMPOSITIONS AND METHODS FOR NEUROLOGICAL DISEASES” (CODA BIOTHERAPEUTICS, INC., priority 2020, published 2024).

Legend:
Lenti-X 293T cells = assay: YFP fluorescence quenching anion reporter plate reader assay of engineered receptors stimulated with acetylcholine or a non-native ligand; format: cell-based
Outline: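 YFP quench was followed for about 1 min 43 s after ligand delivered in iodide-based ECS, pH 7.2. Values are end-of-read fluorescence (last 10 s) divided by the pre-ligand baseline (15 s). Cells were LX293T, transfected with receptor DNA a day before the assay.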

rat DRG neurons = assay: Rheobase shift and evoked action potentials in rat DRG neurons (current clamp); format: cell-based
Experimental: Using whole cell manual patch clamp electrophysiology in HEK293 cells, rat DRG neurons and rat hippocampal neurons, the EC50 of the various engineered receptors disclosed herein to Ach and non-native ligands was measured using the Hill equation with peak current measurements from escalating doses of ligand. The rheobase shift was also measured in rat DRG neurons, which reflects the efficacy of the receptors. To calculate the rheobase, first, the amount of current that can produce an action potential was determined. Then the ligand was added, followed by a step wise increase in the current injected up to 700 pA.
For manual patch clamp experiments, Cells plated on coverslips were visualized at 10× and 40× on an inverted fluorescence microscope (Olympus). Recordings were made with an Axopatch 200B amplifier and Digidata 1550B (Molecular Devices) at RT using 3-6 MOhm glass patch electrodes (Sutter, BF150-86-10). Unless otherwise stated, recordings were made in extracellular solution (ECS) containing: 140 mM sodium chloride, 4 mM potassium chloride, 1 mM magnesium chloride, 2 mM calcium chloride, 10 mM HEPES, and 10 mM D-(+)-glucose (pH=7.3 with sodium hydroxide, osmolarity=305−315 mOsm). An 8-line reservoir (AutoMate Scientific) in combination with an 8-channel zero-dead-volume perfusion pencil (AutoMate Scientific) was used for perfusion. Data was acquired using pClamp software (Molecular Devices). Traces were either analyzed in Clampfit (Molecular Devices) or using custom Python code. Plotting and statistics were performed in GraphPad Prism.
DRG rheobase experiments were performed in current clamp mode using a potassium-based internal solution containing: 100 mM potassium D-gluconate, 28 mM potassium chloride, 1 mM magnesium chloride hexahydrate, 5 mM magnesium ATP, 10 mM HEPES, and 0.5 mM EGTA (pH=7.2 with potassium hydroxide, osmolarity=290-295 mOsm, calculated liquid junction potential=−13.5 mV). To measure DRG input resistance and rheobase, 500 ms current steps (−200 pA to 700 pA) were applied the membrane in the presence and absence of a compound. No holding current was applied to the membrane for cells included in the final datasets. Data were acquired at 10 kHz, with Bessel filter at 2 kHz and series resistance compensation at 100%. Rheobase was defined as the smallest depolarizing current injection required to cause an action potential to fire in the cell. In a subset of cells, the rheobase was ambiguous, since the action potential appeared to be graded in amplitude. In these cases, a […] of the trace clarified the rheobase. Input resistance was measured from the negative current injections, calculated as the difference in membrane potential at steady state divided by the current injection amplitude and then averaged across the four negative current steps for each recording. Resting membrane potential was measured from the first 100 ms of each sweep, averaged for each recording, and corrected for liquid junction potential. One-way ANOVA with multiple comparisons was used to test for significance of difference in rheobase and input resistance between baseline, drug, and wash conditions.

B1: CODA1039: engineered chimeric LGIC receptor, Y115E, Y210W in SEQ ID NO: 33 (protein)
chain: MRCSPGGVWLALAASLLHVSLQGEFQRKLYKELVKNYNPLERPVANDSQPLTVYFSLSLLQIMDVDEKNQVLTTNIWLQMSWTDHYLQWNVSEYPGVKTVRFPDGQIWKPDILLENSADERFDATFHTNVLVNSSGHCQYLPPGIFKSSCPMDLKNFPMDVQTCKLKFGSWSYGGWSLDLQMQEADISGYIPNGEWDLVGIPGKRSERFWECCKEPYPDVTFTVTMRRRMGYYLIQMYIPSLLIVILSWISFWINMDAAPARVGLGITTVLTMTTQSSGSRASLPKVSYVKAIDIWMAVCLLFVFSALLEYAAVNFVSRQHKELLRFRRKRRHHKSPMLNLFQEDEAGEGRFNFSAYGMGPACLQAKDGISVKGANNSNTTNPPPAPSKSPEEMRKLFIQRAKKIDKISRIGFPMAFLIFNMFYWIIYKIVRREDVHNQ
modifications: synthetic sequence of chimeric LGIC
For B1, the “YFP fluorescence quenching using CNL001” value (Lenti-X 293T cells; 1 nM CNL001, first column) was −1.12%, the “YFP fluorescence quenching using CNL001” value (Lenti-X 293T cells; 1 nM CNL001, second column) was −3.941% and the “YFP fluorescence quenching using TC-5619/Bradanicline” value (Lenti-X 293T cells; 1 nM brd) was −5.55%. The “YFP fluorescence quenching using TC-5619/Bradanicline” value (Lenti-X 293T cells; 3 nM brd) was 6.78%, the “YFP fluorescence quenching using Varenicline” value (Lenti-X 293T cells; 3 nM var, first column) was −10.926 and the “YFP fluorescence quenching using Varenicline” value (Lenti-X 293T cells; 3 nM var, second column) was −7.395. For the same molecule, the “YFP fluorescence quenching using CNL001” value (Lenti-X 293T cells; 10 nM CNL001, first column) was 6.275%, the “YFP fluorescence quenching using CNL001” value (Lenti-X 293T cells; 10 nM CNL001, second column) was 11.943% and the “YFP fluorescence quenching using TC-5619/Bradanicline” value (Lenti-X 293T cells; 10 nM brd) was −2.7%. For the same molecule, the “YFP fluorescence quenching using TC-5619/Bradanicline” value (Lenti-X 293T cells; 30 nM brd) was 34.43%, the “YFP fluorescence quenching using Facinicline” value (Lenti-X 293T cells; 30 nM fac) was −13.46 and the “YFP fluorescence quenching using Varenicline” value (Lenti-X 293T cells; 30 nM var, first column) was −5.661. For the same molecule, the “YFP fluorescence quenching using Varenicline” value (Lenti-X 293T cells; 30 nM var, second column) was −1.244, the “YFP fluorescence quenching using CNL001” value (Lenti-X 293T cells; 50 nM CNL001, first column) was 12.949% and the “YFP fluorescence quenching using CNL001” value (Lenti-X 293T cells; 50 nM CNL001, second column) was 18.635%. For the same molecule, the “YFP fluorescence quenching using ABT-126” value (Lenti-X 293T cells; 50 nM abt) was −17.32%, the “YFP fluorescence quenching using CNL001” value (Lenti-X 293T cells; 100 nM CNL001, first column) was 17.576% and the “YFP fluorescence quenching using CNL001” value (Lenti-X 293T cells; 100 nM CNL001, second column) was 18.319%. The “YFP fluorescence quenching using CNL002” value (Lenti-X 293T cells; 100 nM CNL002) was 21.85%, the “YFP fluorescence quenching using ABT-126” value (Lenti-X 293T cells; 100 nM abt) was −13.93% and the “YFP fluorescence quenching using AZD-0328” value (Lenti-X 293T cells; 100 nM azd0328) was −10.45%. The “YFP fluorescence quenching using ABT-126” value (Lenti-X 293T cells; 300 nM abt) was 9.9%, the “YFP fluorescence quenching using AZD-0328” value (Lenti-X 293T cells; 300 nM azd0328) was −13% and the “YFP fluorescence quenching using TC-5619/Bradanicline” value (Lenti-X 293T cells; 300 nM brd) was 70.05%. For the same molecule, the “YFP fluorescence quenching using Facinicline” value (Lenti-X 293T cells; 300 nM fac) was 5.43, the “YFP fluorescence quenching using Varenicline” value (Lenti-X 293T cells; 300 nM var, first column) was −4.555 and the “YFP fluorescence quenching using Varenicline” value (Lenti-X 293T cells; 300 nM var, second column) was 1.081. For the same molecule, the “YFP fluorescence quenching using ABT-126” value (Lenti-X 293T cells; 500 nM abt) was 36.97%, the “YFP fluorescence quenching using Varenicline” value (Lenti-X 293T cells; 500 nM var, first column) was 9.172 and the “YFP fluorescence quenching using Varenicline” value (Lenti-X 293T cells; 500 nM var, second column) was 12.561. For the same molecule, the “YFP fluorescence quenching using CNL001” value (Lenti-X 293T cells; 1 uM CNL001, first column) was 19.329%, the “YFP fluorescence quenching using CNL001” value (Lenti-X 293T cells; 1 uM CNL001, second column) was 20.672% and the “YFP fluorescence quenching using CNL002” value (Lenti-X 293T cells; 1 uM CNL002) was 47.37%. For the same molecule, the “YFP fluorescence quenching using ABT-126” value (Lenti-X 293T cells; 1 uM abt) was 48.37%, the “YFP fluorescence quenching using TC-6987” value (Lenti-X 293T cells; 1 uM tc6987) was 7.26 and the “YFP fluorescence quenching using Varenicline” value (Lenti-X 293T cells; 1 uM var, first column) was 7.139. The “YFP fluorescence quenching using Varenicline” value (Lenti-X 293T cells; 1 uM var, second column) was 12.664, the “YFP fluorescence quenching using ABT-126” value (Lenti-X 293T cells; 3 uM abt) was 50.5% and the “YFP fluorescence quenching using ABT-126” value (Lenti-X 293T cells; 10 uM abt) was 58.13%. The “YFP fluorescence quenching using TC-6987” value (Lenti-X 293T cells; 10 uM tc6987) was 11, the “YFP fluorescence quenching using CNL002” value (Lenti-X 293T cells; 30 uM CNL002) was 59.97% and the “YFP fluorescence quenching using ABT-126” value (Lenti-X 293T cells; 30 uM abt) was 64.1%. The “YFP fluorescence quenching using AZD-0328” value (Lenti-X 293T cells; 30 uM azd0328) was 30.76%, the “YFP fluorescence quenching using Facinicline” value (Lenti-X 293T cells; 30 uM fac) was 49.06 and the “YFP fluorescence quenching using ABT-126” value (Lenti-X 293T cells; 50 uM abt) was 66.67%. For the same molecule, the “YFP fluorescence quenching using ABT-126” value (Lenti-X 293T cells; 100 uM abt) was 68.63%, the “YFP fluorescence quenching using TC-6987” value (Lenti-X 293T cells; 500 uM tc6987) was 7.97 and the “percent quench of YFP fluorescence, 30 nM TC-6683” value (Lenti-X 293T cells; TC-6683 30 nM) was −1.608%. For the same molecule, the “percent quench of YFP fluorescence, 300 nM TC-6683” value (Lenti-X 293T cells; TC-6683 300 nM) was −3.491%, the “percent quench of YFP fluorescence, 3 uM TC-6683” value (Lenti-X 293T cells; TC-6683 3 uM) was −6.153% and the “percent quench of YFP fluorescence, 30 uM TC-6683” value (Lenti-X 293T cells; TC-6683 30 uM) was −9.263%. For the same molecule, the “percent quench of YFP fluorescence, 100 uM TC-6683” value (Lenti-X 293T cells; TC-6683 100 uM) was −9.19%, the “percent quench of YFP fluorescence, 10 uM ach” value (Lenti-X 293T cells; acetylcholine 10 uM) was −2.97% and the “percent quench of YFP fluorescence, 50 uM ach” value (Lenti-X 293T cells; acetylcholine 50 uM) was −3.94%. The “percent quench of YFP fluorescence, 100 uM ach” value (Lenti-X 293T cells; acetylcholine 100 uM) was 0.35%, the “percent quench of YFP fluorescence, 300 uM ach” value (Lenti-X 293T cells; acetylcholine 300 uM) was −4.13% and the “percent quench of YFP fluorescence, 500 uM ach” value (Lenti-X 293T cells; acetylcholine 500 uM) was −5.18%. The “percent quench of YFP fluorescence, 1 mM ach” value (Lenti-X 293T cells; acetylcholine 1 mM) was 1.21%, the “percent quench of YFP fluorescence, 3 mM ach” value (Lenti-X 293T cells; acetylcholine 3 mM) was 26.69% and the “Rheobase Shift; Rat DRG Neurons, +TC-5619 @ EC90” value (rat DRG neurons; +TC-5619 @ EC90) was 453 ± 58 pA. The “Rheobase Shift; Rat DRG Neurons, Baseline” value (rat DRG neurons; Baseline, no ligand) was 88 ± 9 pA.
